# Publication PMC3740589
# Target: Bcl-2 (UniProt P10415)
# Assay: Flag-Beclin1 IP, Bcl-2 immunoblot
# Settings: reference: Flag-Beclin1 wild type; sites T119
substance,measurement,value
Beclin1 (from UniProt Q14457) Flag-Beclin1 T119A,binding against the reference,stronger
